Consider 6 molecules from US20170002061A1 (ALLIGATOR BIOSCIENCE, published 2017).

Usually EC50 stands for the concentration at which the effect is half-maximal. The low end stands for higher potency in that assay, the high end for lower potency in that assay. The Kd is a measure of binding affinity in units of concentration. As a reminder, the koff is the rate constant with which the complex falls apart. A high value points to fast dissociation. One may read the kon as the rate constant with which the complex forms. Low readings indicate slower complex formation, high ones faster complex formation.

Test [1] deals with CD40 on B cells (UniProt P25942 21-277, limits assumed). Description: cell-based or functional assay.
Sequence of CD40 on B cells (P25942 21-277 limits assumed): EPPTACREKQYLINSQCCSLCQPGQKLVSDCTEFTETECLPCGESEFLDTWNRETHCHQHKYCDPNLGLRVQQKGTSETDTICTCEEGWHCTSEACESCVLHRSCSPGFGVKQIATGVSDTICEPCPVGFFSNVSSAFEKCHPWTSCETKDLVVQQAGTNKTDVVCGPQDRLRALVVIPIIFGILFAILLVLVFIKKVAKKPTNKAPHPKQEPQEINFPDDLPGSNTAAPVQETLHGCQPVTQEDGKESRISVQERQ
The target of test [2] is T1, Fc-fused CD40 (Ancell, #504-820) (human, UniProt P25942 21-193).
T1 construct: not shown: Fc part of a bought fusion protein
T1 sequence (P25942 21-193 limits assumed): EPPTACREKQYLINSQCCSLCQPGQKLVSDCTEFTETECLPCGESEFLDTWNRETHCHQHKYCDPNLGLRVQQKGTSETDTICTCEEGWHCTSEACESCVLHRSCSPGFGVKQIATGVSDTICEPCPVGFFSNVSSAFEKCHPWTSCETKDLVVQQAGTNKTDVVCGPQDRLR
Description: ELISA, Fc-fused CD40 coated at 0.05 ug/ml, IgG in serial dilution, anti human Ig-Fc-HRP. On the procedure: For the CD40 binding ELISA, high binding flat bottom LIA plates (Greiner #655074) were coated with Fc-fused CD40 (Ancell, #504-820) at 0.05 μg/ml, and milk powder were used at 3% for blocking and at 1% for dilution. The antibodies to be tested were added in serial dilutions starting at 2000 ng/ml and detection was carried out using HRP conjugated goat anti human Ig-Fc (Jackson ImmunoResearch, #109-035-098) and Super Signal Pico Chemiluminescent (ThermoScientific, #37069) was used as substrate.
A general note: An ELISA detects its analyte on a solid surface through an enzyme-linked reagent.

The target in test [3] is T2, LTBRhfc (R&Dsystems, USA) (human, UniProt P36941 28-227, limits assumed).
T2 construct: Bought protein; also called Fc-fused LTBR (R&D Systems, #629-LR); not shown: Fc part ('hfc') of a bought fusion protein
T2 sequence (P36941 28-227 limits assumed): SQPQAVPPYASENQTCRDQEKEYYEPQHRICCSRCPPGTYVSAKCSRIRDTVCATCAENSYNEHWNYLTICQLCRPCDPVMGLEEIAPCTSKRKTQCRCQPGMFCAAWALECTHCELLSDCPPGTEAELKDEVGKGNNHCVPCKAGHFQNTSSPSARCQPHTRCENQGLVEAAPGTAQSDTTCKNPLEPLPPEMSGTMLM
As to the kind of experiment: SPR (Biacore 3000), LTBRhfc amine-coupled to CM5, IgG as analyte, 37 C, pH 7.3. On the procedure:
The LTBR binding antibody clones were screened, selected and cloned into full IgG format as described above for CD40. Binding to LTBR for two selected anti-LTBR antibody clones was characterized by surface plasmon resonance (SPR). SPR analysis of LTBR antibodies was performed according to standard protocols. The LTBRhfc (R&Dsystems, USA) was immobilized to the BIAcore sensorchip, CM5, using conventional amine coupling. The anti-LTBR antibodies (serially diluted ⅓ from 1-0.012 nM) were analysed for binding in HBS-P (GE, BR-1003-68) at a flow rate of 30 μl/min at 37° C. and pH 7.3. The association was followed for 3 minutes and the dissociation for 10 minutes. Regeneration was performed twice using 50 mM NaOH for 30 seconds. The kinetic parameters and the affinity constants were calculated using BIAevaluation 4.1 software, and samples were run, using the Biacore 3000 instrument according to manufacturer's protocols.
On the technique in general: Surface plasmon resonance follows binding to a sensor surface in real time, without labels.

Substitutions are numbered along the chain they refer to.

B1: B03 (antibody, V domains shown)
VH: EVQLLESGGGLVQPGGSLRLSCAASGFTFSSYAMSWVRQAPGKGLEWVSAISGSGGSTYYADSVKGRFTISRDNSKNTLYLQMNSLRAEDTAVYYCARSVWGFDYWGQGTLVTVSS
VL: DIQMTQSPSSLSASVGDRVTITCRASQSISSYLNWYQQKPGKAPKLLIYAASSLQSGVPSRFSGSGSGTDFTLTISSLQPEDFATYYCQQGYHVWLYTFGQGTKLEIK
As to B1, the “EC50 B cell (ug/ml); B cell proliferation, ATP content by Cell-titer glow” value (“EC50 B cell (ug/ml)” for short) in test [1] worked out at 0.44 µg/mL.

B2: 1136/1137 (antibody, V domains shown)
VH: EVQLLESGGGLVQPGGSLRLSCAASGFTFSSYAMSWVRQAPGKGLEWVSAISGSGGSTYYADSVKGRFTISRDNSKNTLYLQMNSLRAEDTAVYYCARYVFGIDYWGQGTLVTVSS
VL: B1 VL with G91A, H93Y, V94A, W95G, Y97F
notes: From library AL2
As for B2, the “EC50 B cell (ug/ml)” value in test [1] was determined as 1 µg/mL. Moreover, the EC50 in test [2] turned out to be 1.4 µg/mL.

B3: 1146/1147 (antibody, V domains shown)
VH: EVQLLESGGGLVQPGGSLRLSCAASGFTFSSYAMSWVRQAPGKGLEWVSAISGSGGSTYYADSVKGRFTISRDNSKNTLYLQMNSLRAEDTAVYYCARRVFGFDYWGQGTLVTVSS
VL: DIQMTQSPSSLSASVGDRVTITCRASQSISSYLNWYQQKPGKAPKLLIYAASSLQSGVPSRFSGSGSGTDFTLTISSLQPEDFATYYCQQYYYYPFTFGQGTKLEIK
notes: From library AL2
In the case of B3, in test [1], the “EC50 B cell (ug/ml)” value was 3.6 µg/mL. The same molecule showed a concentration for a half-maximal effect (EC50) in test [2] of 0.58 µg/mL.

B4: LTBR-3 (antibody, V domains shown)
VH: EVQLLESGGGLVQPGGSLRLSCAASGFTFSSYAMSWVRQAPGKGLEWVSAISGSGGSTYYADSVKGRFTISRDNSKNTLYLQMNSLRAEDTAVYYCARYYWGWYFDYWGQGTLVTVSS
VL: B3 VL with Y91G, Y92W, Y93W, F96L
notes: From library AL1
In test [3], B4 came in with a Kd of 0.734 nM, a koff of 0.00158 s⁻¹ and a kon of 2.23e+06 M⁻¹ s⁻¹.

B5: 1148/1149 (antibody, V domains shown)
VH: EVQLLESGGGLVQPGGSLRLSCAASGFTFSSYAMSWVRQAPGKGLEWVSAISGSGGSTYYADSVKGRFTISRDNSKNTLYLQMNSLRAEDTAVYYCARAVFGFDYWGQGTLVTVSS
VL: B3 VL with Y91A, Y94F, F96H
notes: From library AL2
B5: in test [1], the “EC50 B cell (ug/ml)” value was 2.3 µg/mL. In addition, the EC50 in test [2] turned out to be 2.2 µg/mL.

B6: 1107/1108 (antibody, V domains shown)
VH: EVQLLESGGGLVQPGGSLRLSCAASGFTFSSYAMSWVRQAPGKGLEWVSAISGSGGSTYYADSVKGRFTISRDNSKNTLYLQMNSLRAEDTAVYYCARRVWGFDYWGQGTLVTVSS
VL: B3 VL with Y92G, Y93V
notes: From library AL1
Turning to B6, in test [1], the “EC50 B cell (ug/ml)” value was found to be 0.7 µg/mL. Besides, the concentration for a half-maximal effect (EC50) in test [2] was determined as 0.034 µg/mL.
